Reference: patent US20230035859A1, “COMPOSITIONS AND METHODS FOR EPITOPE SCANNING” (priority 2019, published 2023)

Assays:
HLA-B*57:01 = HLA-B*57:01 (Homo sapiens, UniProt P01889, D201E/D98Y/E176V/E187L/E204Q/E69M/E70A/G107R/I90N/K202T/L105A/L119I/N104I/N87E/Q89R/Q94S/R106L/R155S/R180L/R86G/S101N/S121V/S35A/S48A/T118I/V36M/Y140S/Y91M); assay: Random 9-mer EpiScan screen in HLA-B57-expressing EpiScan cells with and without abacavir; type: cell-based; conditions: 48 h abacavir treatment at 6 μM
[1] = cited from earlier work
HLA-A*02:01 [2] = target: T1, HLA-A*02:01 (Homo sapiens, UniProt P04439, D140Y/D185E/D98H/E176V/E277Q/G131W/G231S/I119V/I121R/I166T/I218V/L300P/L318F/N151K/N90K/P208A/P217A/Q86G/Q94H/R138H/R169H/T345S); type: cell-based
HLA-A*02:01 [3] = target: T1, HLA-A*02:01; assay: QuickSwitch Quant HLA-A*02:01 Tetramer control peptide exchange
CD8+ T cells = type: cell-based, human; parameters: key: y = yes; TBD = to be determined

| Molecule | EpiScan MFI (HLA-A*02:01 [2]) | % Peptide Exchange (HLA-A*02:01 [3]) | Patient tetramer positivity? (CD8+ T cells) | further results |
| --- | --- | --- | --- | --- |
| Nc1nc(NC2CC2)c2ncn([C@H]3C=C[C@@H](CO)C3)c2n1 [Abacavir] |  |  |  | binding peptides with C-terminal Residue C, Abacavir treated (HLA-B*57:01): 3; binding peptides with C-terminal Residue F, Abacavir treated (HLA-B*57:01): 66; binding peptides with C-terminal Residue G, Abacavir treated (HLA-B*57:01): 4; binding peptides with C-terminal Residue I, Abacavir treated (HLA-B*57:01): 59; binding peptides with C-terminal Residue L, Abacavir treated (HLA-B*57:01): 10; binding peptides with C-terminal Residue M, Abacavir treated (HLA-B*57:01): 5; binding peptides with C-terminal Residue N, Abacavir treated (HLA-B*57:01): 1; binding peptides with C-terminal Residue R, Abacavir treated (HLA-B*57:01): 3; binding peptides with C-terminal Residue V, Abacavir treated (HLA-B*57:01): 28; binding peptides with C-terminal Residue W, Abacavir treated (HLA-B*57:01): 502; binding peptides with C-terminal Residue Y, Abacavir treated (HLA-B*57:01): 22; hypersensitivity, share of patients [1]: around 5% |
| AMDEFIERYKL | 2.352 | 96.89% |  |  |
| SLPGVFCGV | 6.418 | 98.00% | y |  |
| TLATHGLAAV | 4.040 | 97.98% |  |  |
| VLYQDVNCTEV | 5.598 | 97.92% |  |  |
| VMAYITGGV | 4.528 | 99.07% |  |  |
| VMAYITGGVV | 4.641 | 99.07% | y |  |
| VMVELVAEL | 5.338 | 98.63% | y |  |
| YIDIGNYTV | 4.421 | 97.94% |  |  |
